The values that follow come from IntAct's records for PubMed 27189942.

First the molecules themselves.
B1: MICAL-like protein 1 (Homo sapiens), Q8N3F8 (parent)
chain: MAGPRGALLAWCRRQCEGYRGVEIRDLSSSFRDGLAFCAILHRHRPDLLDFDSLSKDNVFENNRLAFEVAEKELGIPALLDPNDMVSMSVPDCLSIMTYVSQYYNHFCSPGQAGVSPPRKGLAPCSPPSVAPTPVEPEDVAQGEELSSGSLSEQGTGQTPSSTCAACQQHVHLVQRYLADGRLYHRHCFRCRRCSSTLLPGAYENGPEEGTFVCAEHCARLGPGTRSGTRPGPFSQPKQQHQQQLAEDAKDVPGGGPSSSAPAGAEADGPKASPEARPQIPTKPRVPGKLQELASPPAGRPTPAPRKASESTTPAPPTPRPRSSLQQENLVEQAGSSSLVNGRLHELPVPKPRGTPKPSEGTPAPRKDPPWITLVQAEPKKKPAPLPPSSSPGPPSQDSRQVENGGTEEVAQPSPTASLESKPYNPFEEEEEDKEEEAPAAPSLATSPALGHPESTPKSLHPWYGITPTSSPKTKKRPAPRAPSASPLALHASRLSHSEPPSATPSPALSVESLSSESASQTAGAELLEPPAVPKSSSEPAVHAPGTPGNPVSLSTNSSLASSGELVEPRVEQMPQASPGLAPRTRGSSGPQPAKPCSGATPTPLLLVGDRSPVPSPGSSSPQLQVKSSCKENPFNRKPSPAASPATKKATKGSKPVRPPAPGHGFPLIKRKVQADQYIPEEDIHGEMDTIERRLDALEHRGVLLEEKLRGGLNEGREDDMLVDWFKLIHEKHLLVRRESELIYVFKQQNLEQRQADVEYELRCLLNKPEKDWTEEDRAREKVLMQELVTLIEQRNAIINCLDEDRQREEEEDKMLEAMIKKKEFQREAEPEGKKKGKFKTMKMLKLLGNKRDAKSKSPRDKS
partner: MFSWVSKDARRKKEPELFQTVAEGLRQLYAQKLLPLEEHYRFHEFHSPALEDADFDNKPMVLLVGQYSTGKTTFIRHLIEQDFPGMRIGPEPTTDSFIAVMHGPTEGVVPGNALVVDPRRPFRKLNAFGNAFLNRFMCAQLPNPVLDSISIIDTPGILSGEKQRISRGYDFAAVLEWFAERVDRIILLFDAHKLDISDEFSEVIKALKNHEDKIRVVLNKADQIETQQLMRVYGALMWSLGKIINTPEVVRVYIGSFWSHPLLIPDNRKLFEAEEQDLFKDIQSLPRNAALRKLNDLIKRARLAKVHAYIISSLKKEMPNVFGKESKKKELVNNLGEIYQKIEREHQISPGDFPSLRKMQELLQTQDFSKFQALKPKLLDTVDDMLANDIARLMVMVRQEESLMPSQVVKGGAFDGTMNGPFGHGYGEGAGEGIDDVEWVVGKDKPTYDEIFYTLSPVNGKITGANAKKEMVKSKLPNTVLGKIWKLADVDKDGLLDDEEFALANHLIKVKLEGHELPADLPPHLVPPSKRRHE
B2: MICAL-like protein 1 (Homo sapiens), Q8N3F8 (parent)
chain: B1 chain
partner: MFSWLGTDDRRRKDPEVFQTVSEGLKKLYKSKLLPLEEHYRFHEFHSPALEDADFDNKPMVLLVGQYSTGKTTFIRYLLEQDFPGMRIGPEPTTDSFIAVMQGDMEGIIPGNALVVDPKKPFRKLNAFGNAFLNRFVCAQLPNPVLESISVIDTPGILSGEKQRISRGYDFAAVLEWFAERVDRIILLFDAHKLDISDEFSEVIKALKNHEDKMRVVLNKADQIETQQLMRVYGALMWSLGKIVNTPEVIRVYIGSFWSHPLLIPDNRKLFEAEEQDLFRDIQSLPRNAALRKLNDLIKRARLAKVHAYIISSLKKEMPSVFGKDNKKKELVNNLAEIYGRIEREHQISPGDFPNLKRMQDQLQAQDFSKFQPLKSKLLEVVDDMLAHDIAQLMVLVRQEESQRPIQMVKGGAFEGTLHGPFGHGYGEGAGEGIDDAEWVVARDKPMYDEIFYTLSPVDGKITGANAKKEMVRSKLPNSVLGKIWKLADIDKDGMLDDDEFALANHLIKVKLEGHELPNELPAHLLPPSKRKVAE
B3: Rabankyrin-5 (Homo sapiens), Q9P2R3 (parent)
chain: MAEEEVAKLEKHLMLLRQEYVKLQKKLAETEKRCALLAAQANKESSSESFISRLLAIVADLYEQEQYSDLKIKVGDRHISAHKFVLAARSDSWSLANLSSTKELDLSDANPEVTMTMLRWIYTDELEFREDDVFLTELMKLANRFQLQLLRERCEKGVMSLVNVRNCIRFYQTAEELNASTLMNYCAEIIASHWDDLRKEDFSSMSAQLLYKMIKSKTEYPLHKAIKVEREDVVFLYLIEMDSQLPGKLNEADHNGDLALDLALSRRLESIATTLVSHKADVDMVDKSGWSLLHKGIQRGDLFAATFLIKNGAFVNAATLGAQETPLHLVALYSSKKHSADVMSEMAQIAEALLQAGANPNMQDSKGRTPLHVSIMAGNEYVFSQLLQCKQLDLELKDHEGSTALWLAVQHITVSSDQSVNPFEDVPVVNGTSFDENSFAARLIQRGSHTDAPDTATGNCLLQRAAGAGNEAAALFLATNGAHVNHRNKWGETPLHTACRHGLANLTAELLQQGANPNLQTEEALPLPKEAASLTSLADSVHLQTPLHMAIAYNHPDVVSVILEQKANALHATNNLQIIPDFSLKDSRDQTVLGLALWTGMHTIAAQLLGSGAAINDTMSDGQTLLHMAIQRQDSKSALFLLEHQADINVRTQDGETALQLAIRNQLPLVVDAICTRGADMSVPDEKGNPPLWLALANNLEDIASTLVRHGCDATCWGPGPGGCLQTLLHRAIDENNEPTACFLIRSGCDVNSPRQPGANGEGEEEARDGQTPLHLAASWGLEETVQCLLEFGANVNAQDAEGRTPIHVAISSQHGVIIQLLVSHPDIHLNVRDRQGLTPFACAMTFKNNKSAEAILKRESGAAEQVDNKGRNFLHVAVQNSDIESVLFLISVHANVNSRVQDASKLTPLHLAVQAGSEIIVRNLLLAGAKVNELTKHRQTALHLAAQQDLPTICSVLLENGVDFAAVDENGNNALHLAVMHGRLNNIRVLLTECTVDAEAFNLRGQSPLHILGQYGKENAAAIFDLFLECMPGYPLDKPDADGSTVLLLAYMKGNANLCRAIVRSGARLGVNNNQGVNIFNYQVATKQLLFRLLDMLSKEPPWCDGSYCYECTARFGVTTRKHHCRHCGRLLCHKCSTKEIPIIKFDLNKPVRVCNICFDVLTLGGVS
partner: B1 partner
B4: EH domain-containing protein 3 (Homo sapiens), Q9NZN3 (parent)
chain: B2 partner
partner: B3 chain
B5: Rabankyrin-5 (Homo sapiens), Q9P2R3 (parent)
chain: B3 chain
partner: B2 partner

In the first test the parent is B1. Conditions: with ehd1_human EHD1, Q9H4M9.
Turning to E428A;E429A;E430A;E431A;E432A;D433A, the “effect of a mutation on the interaction” value is given as “disrupting interaction”. With E429A;E430A;E431A;E432A;D433A, the “effect of a mutation on the interaction” value was “decreasing interaction”.

A further test covers variants of B2. The following applies: with ehd3_human EHD3, Q9NZN3.
With E428A;E429A;E430A;E431A;E432A;D433A, the “effect of a mutation on the interaction” value is “disrupting interaction”.

A further test covers variants of B3. Conditions: with ehd1_human EHD1, Q9H4M9.
Consider S419P, for which the “effect of a mutation on the interaction” value is recorded as “disrupting interaction”.

The next test covers variants of B4. Conditions: with anfy1_human ANKFY1, Q9P2R3.
For the variant MFSWLGTDDRRRKDPEVFQTVSEGLKKLYKSKLLPLEEHYRFHEFHSPALEDADFDNKPMVLLVGQYSTGKTTFIRYLLEQDFPGMRIGPEPTTDSFIAVMQGDMEGIIPGNALVVDPKKPFRKLNAFGNAFLNRFVCAQLPNPVLESISVIDTPGILSGEKQRISRGYDFAAVLEWFAERVDRIILLFDAHKLDISDEFSEVIKALKNHEDKMRVVLNKADQIETQQLMRVYGALMWSLGKIVNTPEVIRVYIGSFWSHPLLIPDNRKLFEAEEQDLFRDIQSLPRNAALRKLNDLIKRARLAKVHAYIISSLKKEMPSVFGKDNKKKELVNNLAEIYGRIEREHQISPGDFPNLKRMQDQLQAQDFSKFQPLKSKLLEVVDDMLAHDIAQLMVLVRQEESQRPIQMVKGGAFEGTLHGPFGHGYGEGAGEGIDDAEWVVARDKPMYDEIFYTLSPVDGKITGANAKKEMVRSKLPNSVLGKIWKLADIDKDGMLDDDEFALANHLIKVKLEGHELPADLPAHLLPPSKRKVAE [N519A;E520D], the “effect of a mutation on the interaction” value is listed as “causing an interaction”.

Variants of B4 are the subject of the next test. Conditions: with anfy1_human ANKFY1, Q9P2R3. The source holds these as a separate data set.
MFSWLGTDDRRRKDPEVFQTVSEGLKKLYKSKLLPLEEHYRFHEFHSPALEDADFDNKPMVLLVGQYSTGKTTFIRYLLEQDFPGMRIGPEPTTDSFIAVMQGDMEGIIPGNALVVDPKKPFRKLNAFGNAFLNRFVCAQLPNPVLESISVIDTPGILSGEKQRISRGYDFAAVLEWFAERVDRIILLFDAHKLDISDEFSEVIKALKNHEDKMRVVLNKADQIETQQLMRVYGALMWSLGKIVNTPEVIRVYIGSFWSHPLLIPDNRKLFEAEEQDLFRDIQSLPRNAALRKLNDLIKRARLAKVHAYIISSLKKEMPSVFGKDNKKKELVNNLAEIYGRIEREHQISPGDFPNLKRMQDQLQAQDFSKFQPLKSKLLEVVDDMLAHDIAQLMVLVRQEESQRPIQMVKGGAFEGTLHGPFGHGYGEGAGEGIDDAEWVVARDKPMYDEIFYTLSPVDGKITGANAKKEMVRSKLPNSVLGKIWKLADIDKDGMLDDDEFALANHLIKVKLEGHELPNDLPAHLLPPSKRKVAE [E520D]: the “effect of a mutation on the interaction” value was “causing an interaction”. Still for that read-out and setting: under MFSWLGTDDRRRKDPEVFQTVSEGLKKLYKSKLLPLEEHYRFHEFHSPALEDADFDNKPMVLLVGQYSTGKTTFIRYLLEQDFPGMRIGPEPTTDSFIAVMQGDMEGIIPGNALVVDPKKPFRKLNAFGNAFLNRFVCAQLPNPVLESISVIDTPGILSGEKQRISRGYDFAAVLEWFAERVDRIILLFDAHKLDISDEFSEVIKALKNHEDKMRVVLNKADQIETQQLMRVYGALMWSLGKIVNTPEVIRVYIGSFWSHPLLIPDNRKLFEAEEQDLFRDIQSLPRNAALRKLNDLIKRARLAKVHAYIISSLKKEMPSVFGKDNKKKELVNNLAEIYGRIEREHQISPGDFPNLKRMQDQLQAQDFSKFQPLKSKLLEVVDDMLAHDIAQLMVLVRQEESQRPIQMVKGGAFEGTLHGPFGHGYGEGAGEGIDDAEWVVARDKPMYDEIFYTLSPVDGKITGANAKKEMVRSKLPNSVLGKIWKLADIDKDGMLDDDEFALANHLIKVKLEGHELPAELPAHLLPPSKRKVAE [N519A] stands “causing an interaction”.

In a further test the parent is B5. The following applies: with ehd3_human EHD3, Q9NZN3.
Regarding V420Y, the “effect of a mutation on the interaction” value is given as “causing an interaction”.

For the variant V420A, the “effect of a mutation on the interaction” value is “causing an interaction”. Turning to Q418K;S419P;V420Y, the “effect of a mutation on the interaction” value is on record as “causing an interaction”. Still for that read-out and setting: under Q418K stands “causing an interaction”.
